# Reference: publication doi:10.1101/2024.07.11.602936 (bioRxiv, 2024)
# B1: glutamine synthetase (GS) (enzyme)
# chain: MATSASSHLNKGIKQMYMNLPQGEKIQLMYIWVDGTGEGLRCKTRTLDCDPKCVEELPEWNFDGSSTFQSEGSNSDMYLHPVAMFRDPFRRDPNKLVFCEVFKYNRKPAETNLRHSCKRIMDMVSSQHPWFGMEQEYTLMGTDGHPFGWPSNGFPGPQGPYYCGVGADKAYGRDIVEAHYRACLYAGIKITGTNAEVMPAQWEFQIGPCEGIRMGDHLWVARFILHRVCEDFGVIATFDPKPIPGNWNGAGCHTNFSTKAMREENGLRCIEEAIDKLSKRHQYHIRAYDPKGGLDNARRLTGFHETSNINDFSAGVANRSASIRIPRIVGQEKKGYFEDRRPSANCDPYAVTEAIVRTCLLNETGDEPFQYKN
# Biological target: the molecule itself
# Assay: cryo-EM structure
protein,measurement,value
B1,stoichiometry N,10
